One series is described as follows: kidney homogenate. The note with it: female Tac:NCr:Foxn1^nu/nu mice, 37° C., up to 60 min.
The nature of series [1]: kidney homogenate stock solution. The note with it: female Tac:NCr:Foxn1^nu/nu mice, 37° C., up to 60 min.
Series [2] is described as follows: plasma (blood) and urine samples collected post injection in normal mice. As to conditions: up to 60 min post injection.
The next series in a line: liver homogenate. The note with it: female Tac:NCr:Foxn1^nu/nu mice, 37° C., up to 60 min.
The target in series [3] is T1, LHRH binding sites on EFO-27 human ovarian cancer cells (human).
T1 chain: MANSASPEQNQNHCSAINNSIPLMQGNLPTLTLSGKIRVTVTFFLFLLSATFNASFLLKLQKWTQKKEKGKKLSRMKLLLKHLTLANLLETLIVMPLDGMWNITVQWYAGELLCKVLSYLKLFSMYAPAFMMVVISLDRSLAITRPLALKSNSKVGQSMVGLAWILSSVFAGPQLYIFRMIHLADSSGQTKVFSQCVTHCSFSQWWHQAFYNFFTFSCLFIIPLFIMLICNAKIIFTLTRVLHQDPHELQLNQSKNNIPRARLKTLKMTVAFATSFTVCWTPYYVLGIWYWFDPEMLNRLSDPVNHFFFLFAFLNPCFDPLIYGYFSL
Briefly: competition with [125I-Tyr8]BRU-2477 on EFO-27 cells.

In series [4] the target is LHRH receptor (LHRH binding sites) on EFO-27 human ovarian cancer cells (human). Briefly: internalization/efflux study, cell-associated radioactivity, EFO-27 cells, 212 fmoles added/well.
Series [5] concerns the target LHRH receptor (LHRH binding sites) on PC-3 human prostate cancer cells (human). Briefly: internalization/efflux study, cell-associated radioactivity, PC-3 cells.
Series [6] has as its target LHRH receptor (LHRH binding sites) on EFO-27 human ovarian cancer cells (human). Briefly: direct binding of 177Lu-labeled peptide to EFO-27 cells, single concentration.
Series [7] shares this target. Briefly: internalization/efflux study, cell-associated radioactivity, EFO-27 cells.
The target in series [8] is LHRH receptor (LHRH binding sites) on PC-3 human prostate cancer cells (human). In words: internalization/efflux study, cell-associated radioactivity, PC-3 cells, 230 fmoles added/well.
For series [9], the target named is LHRH receptor (LHRH binding sites) on EFO-27 human ovarian cancer cells (human). In words: internalization/efflux study, cell-associated radioactivity, EFO-27 cells, 205 fmoles added/well.
The target is the same in series [10]. In words: saturation binding to EFO-27 cells, single-site fit.
For series [11], the target named is T1, LHRH binding sites (presumed LHRH …). In words: competition with [125I-Tyr8]BRU-2477 on EFO-27 cells.
For series [12], the target named is LHRH receptor (LHRH binding sites) on EFO-27 human ovarian cancer cells (human). In words: internalization/efflux study, cell-associated radioactivity, EFO-27 cells, 156 fmoles added/well.
For series [13], the target named is T1, LHRH binding sites (presumed LHRH …). In words: competition with [125I-Tyr8]BRU-2477 on EFO-27 cells.
Series [14] has the same target. The series is described as above.
For series [15] the target is unchanged. The series is described as above.
Series [16] shares this target. Described as above.
Series [17] addresses LHRH receptor (LHRH binding sites) on EFO-27 human ovarian cancer cells (human). Briefly: internalization/efflux study, cell-associated radioactivity, EFO-27 cells, 200 fmoles added/well.
For series [18] the target is unchanged. In words: internalization/efflux study, cell-associated radioactivity, EFO-27 cells, 203 fmoles added/well.
Series [19] shares this target. In words: competition with [125I-Tyr8]BRU-2477 for binding to EFO-27 cells.
Series [20] has the same target. In words: competition with [125I-Tyr8]BRU-2477, EFO-27 cells.
Series [21] concerns the target LHRH binding sites on EFO-27 human ovarian cancer cells (human). In words: competition with [125I-Tyr8]BRU-2477 on EFO-27 cells. This is another data set of the same source.
Series [22] has the same target. The series is described as above. The source holds these as a separate data set.
The target in series [23] is LHRH receptor (LHRH binding sites) on EFO-27 human ovarian cancer cells (human). Briefly: internalization/efflux study, cell-associated radioactivity, EFO-27 cells, 78 fmoles added/well.
For series [24], the target named is T1, LHRH binding sites (presumed LHRH …). In words: competition with [125I-Tyr8]BRU-2477 on EFO-27 cells.
In series [25] the target is LHRH receptor (LHRH binding sites) on EFO-27 human ovarian cancer cells (human). In words: internalization/efflux study, cell-associated radioactivity, EFO-27 cells, 292 fmoles added/well.
Series [26] shares this target. In words: competition with [125I-Tyr8]BRU-2477 for binding to EFO-27 cells. This is another data set of the same source.
Series [27] shares this target. The series is described as above. This is another data set of the same source.

“Also recorded” adds a separate entry of the source. Like-named read-outs stand apart in the source and are kept apart here. Non-standard residues stand in square brackets, D forms with d. Primed or numbered codes have the meaning given here. *: point of attachment. DO3A10CM″ = chelating group at the N-terminus (X in the sequence tables); Bpa = N[C@@H](Cc1ccc(C(=O)c2ccccc2)cc1)C(=O)O; d2Nal = N[C@H](Cc1ccc2ccccc2c1)C(=O)O; pGlu = O=C1CC[C@@H](C(=O)O)N1; DO3A10CM = not defined here; Bpa4 = non-natural residue; Amfe4 = not defined here; Hpgly = not defined here; Mogly = not defined here; Tha = not defined here; azaGly = NNC(=O)O; Sar = CNCC(=O)O; 125I = [125I]*

In the case of “Lu-DOTA-Dnal2-Arg-Trp-Ser-His-Darg-Trp-Bpa4-Pro-azaGly-NH2”, the cleaved bond entry in “kidney homogenate” is reported as “Bpa48-Pro9, major”; in series [1] it was “Bpa48-Pro9, major; also recorded: Trp7-Bpa48, major”; in series [2], “Bpa48-Pro9, major”; in the series “liver homogenate” it was “Bpa48-Pro9, major”. The fragment found entry in [2] was “BRU-3046; BRU-2813[1-7]-OH”.

B1: BRU-2767 (peptide)
peptide: DO3A10CM-[Sar]HWSH[dR]WP[azaGly]-NH2
modifications: not fully specified; reading uncertain
The term EC50 denotes the concentration needed to bring the measured effect to its halfway point. Higher therefore signals a less potent agent. Regarding B1, it took 10000 nM to reach a half-maximal effect in series [3] (EC50).

B2: ^177Lu-BRU-2813 (peptide)
peptide: XRWSHXWXPX
modifications: 177Lu held by the N-terminal DO3A10CM: 177Lu-DO3A10CM-Dnal2-Arg-Trp-Ser-His-Darg-Trp-Bpa4-Pro-azaGly-NH2
In the case of B2, the Bound fmoles stood at 40.5 fmol in series [4] and 44.3 fmol in series [8]. Further, the Bound % in [5] amounted to 19.3%; in series [7], 19.1%. Further, in series [6], the % Bound was 18.8%.

B3: ^177Lu-BRU-2666 (peptide)
peptide: XHWSHXWXPX
modifications: 177Lu held by the N-terminal DO3A10CM: 177Lu-DO3A10CM-Dnal2-His-Trp-Ser-His-Darg-Trp-Bpa4-Pro-azaGly-NH2
The term Kd denotes the equilibrium constant for the complex coming apart. Low values mean higher affinity, high ones lower affinity. For the molecule B3, in series [9], the Bound fmoles stood at 25 fmol. Further, the % Bound in [6] was found to be 13.2%. Also, the Bound % in series [7] stood at 12.2%. For the same molecule, in series [10], the Kd came to 920 nM, the Max. binding (Bmax) (pmoles/10^6 cells) was found to be 183 and the Receptors/cell (receptors/cell) amounted to 1.1e+08.

B4: BRU-3108 (peptide)
peptide: DO3A10CM-[d2Nal]RLSH[dR]W[Bpa]P[azaGly]-NH2
modifications: reading uncertain
notes: AA3 Leu
For B4, in [11], the EC50 came out at 560 nM.

B5: [Darg^6, ^125I-Tyr^8, azaGly^10]-LHRH-II (peptide)
peptide: [pGlu]HWSH[dR]WY(125I)P[azaGly]-NH2
On to B5, for which the Bound fmoles in [12] is 1.87 fmol. The Bound % in series [7] amounted to 1.2%. Further, in [10], the Kd worked out at 1290 nM, the Max. binding (Bmax) (pmoles/10^6 cells) was found to be 141 and the Receptors/cell (receptors/cell) stood at 8.5e+07.

B6: BRU-2730 (peptide)
peptide: DO3A10CM-[Sar]HWSH[dR]WFP[azaGly]-NH2
modifications: reading uncertain
notes: AA8 Phe
B6: the EC50 in series [3] stood at 12900 nM.

B7: BRU-3046 (peptide)
peptide: XRWSHXW
modifications: DO3A10CM on N-terminus; AA1 Dnal2; AA6 Darg; AA8-AA10 absent; C-terminal free acid
Regarding B7, the EC50 in series [13] and in [14] was 15900 nM in each case.

B8: BRU-3106 (peptide)
peptide: XRFSHXWXPX
modifications: DO3A10CM on N-terminus; AA1 Dnal2; AA6 Darg; AA8 Bpa4; AA10 azaGly-NH2
notes: AA3 Phe
On to B8, for which, in series [11], a half-maximal effect (EC50) was put at 430 nM.

B9: BRU-2769 (peptide)
peptide: DO3A10CM-[Sar]HWS[Tha][dR]W[Bpa]P[azaGly]-NH2
modifications: reading uncertain
For the molecule B9, the “fold lower binding potency than BRU-2443” value in [15] is ~8 fold. It took 7340 nM to reach a half-maximal effect in series [16] (EC50).

B10: BRU-3064 (peptide)
peptide: DO3A10CM-[d2Nal]RWSH[dR]W[Bpa4]-OH
modifications: reading uncertain
Turning to B10, the midpoint of the response in [14], the EC50, lay at 670 nM.

B11: BRU-2723 (peptide)
peptide: DO3A10CM-[Sar]HWSH[dR]WRP[azaGly]-NH2
modifications: reading uncertain
notes: AA8 Arg
B11: the EC50 in series [3] is 2830 nM.

B12: BRU-3111 (peptide)
peptide: XRRSHXWXPX
modifications: DO3A10CM on N-terminus; AA1 Dnal2; AA6 Darg; AA8 Bpa4; AA10 azaGly-NH2
notes: AA3 Arg
In turn, B12 yielded an EC50 in [11] of 250 nM.

B13: ^177Lu-BRU-2756 (peptide)
peptide: DO3A10CM-[Sar][Amfe4]WSH[dR]W[Bpa]P[azaGly]-NH2
modifications: reading uncertain; also: 177Lu complexed by DO3A10CM, printed as 177Lu-DO3A10CM-Sar-Amfe4-Trp-Ser-His-Darg-Trp-Bpa4-Pro-azaGly-NH2
In series [6], B13 registered a % Bound of 5.17%. Besides, the Bound % in series [7] was 5.1%. In addition, the Bound fmoles in [17] was 10.2 fmol.

B14: ^177Lu-BRU-2757 (peptide)
peptide: XHWSHXWXPX
modifications: 177Lu held by the N-terminal DO3A10CM: 177Lu-DO3A10CM-Damfe4-His-Trp-Ser-His-Darg-Trp-Bpa4-Pro-azaGly-NH2
B14 yielded a % Bound in series [6] of 11.1%. The Bound % in series [7] was found to be 9.5%. For the same molecule, the Bound fmoles in [17] is 19 fmol.

B15: ^177Lu-BRU-2797 (peptide)
peptide: DO3A10CM-G[Hpgly]HWSH[dR]W[Bpa]P[azaGly]-NH2
modifications: reading uncertain; also: 177Lu complexed by DO3A10CM, printed as 177Lu-DO3A10CM-Gly-Hpgly-His-Trp-Ser-His-Darg-Trp-Bpa4-Pro-azaGly-NH2
The molecule B15 yielded a % Bound in series [6] of 4.64%. Also, the Bound fmoles in series [18] stood at 4.1 fmol. Also, the Bound % in [7] came out at 2.02%.

B16: BRU-2666 (peptide)
peptide: XHWSHXWXPX
modifications: as printed: DO3A10CM-Dnal2-His-Trp-Ser-His-Darg-Trp-Bpa4-Pro-azaGly-NH2
For B16, the EC50 in series [19] amounted to 390 nM; in [20], 470 nM; in [21], 2600 nM; in series [22] it was 470 nM. The times more potent than the Sar1 analog (BRU-2443) in series [21] amounted to 2 times.

B17: ^177Lu-BRU-2796 (peptide)
peptide: DO3A10CM-G[Mogly]HWSH[dR]W[Bpa]P[azaGly]-NH2
modifications: reading uncertain; also: 177Lu complexed by DO3A10CM, printed as 177Lu-DO3A10CM-Gly-Mogly-His-Trp-Ser-His-Darg-Trp-Bpa4-Pro-azaGly-NH2
Consider B17, for which, in series [23], the Bound fmoles was 0.93 fmol. For the same molecule, the Bound % in series [7] was determined as 1.2%.

B18: BRU-3110 (peptide)
peptide: DO3A10CM-[d2Nal]RESH[dR]W[Bpa]P[azaGly]-NH2
modifications: reading uncertain
notes: AA3 Glu
For the molecule B18, the “fold lower binding potency than BRU-2813” value in [15] was ~8 fold. Besides, the EC50 in series [11] is 2600 nM.

B19: BRU-2724 (peptide)
peptide: DO3A10CM-[Sar]HWSH[dR]WWP[azaGly]-NH2
modifications: reading uncertain
notes: AA8 Trp
Turning to B19, the EC50 in series [3] and in series [24] was 2670 nM each time.

B20: ^177Lu-BRU-2968 (peptide)
peptide: XRWSHXWXP
modifications: 177Lu held by the N-terminal DO3A10CM: 177Lu-DO3A10CM-Dnal2-Arg-Trp-Ser-His-Darg-Trp-Bpa4-Pro-Da15o3pt
Regarding B20, the Bound fmoles in series [25] came out at 68.8 fmol. In [6], the % Bound is 23.5%. The Bound % in series [7] was 23.6%.

B21: BRU-2813 (peptide)
peptide: XRWSHXWXPX
modifications: as printed: DO3A10CM-Dnal2-Arg-Trp-Ser-His-Darg-Trp-Bpa4-Pro-azaGly-NH2
Regarding B21, the EC50 stood at 300 nM in [19]; 330 nM in [20]; 330 nM in series [22]; 420 nM in [26]; 330 nM in series [27]. Besides, the percent more potency than BRU-2666 in series [21] is 30%.

B22: BRU-2763 (peptide)
peptide: {DO3A10CM″}-[Sar]HWSH[dR]WHP[azaGly]-NH2
notes: AA8 His
As to B22, the response in series [3] was half-maximal at 13600 nM (EC50).

Values taken from patent publication US20120045393A1 (priority 2009, published 2012).
